Data: patent US20250009876A1 (H LUNDBECK A S, published 2025)

T1: PACAP38 (Pituitary Adenylate Cyclase-Activating Polypeptide, 38 amino acids) (human, not fully specified; the C-terminal lysine is amidated)
T1 peptide: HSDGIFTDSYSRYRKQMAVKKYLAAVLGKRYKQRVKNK

T2: PACAP27 (Pituitary Adenylate Cyclase-Activating Polypeptide, 27 amino acids) (human, the C-terminal leucine is amidated)
T2 peptide: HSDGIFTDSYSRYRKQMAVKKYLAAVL

T3: PAC1-R on PAC1-R-expressing PC-12 cells (UniProt P32215 20-523)
T3 construct: whole, on cells; also called PAC1 receptor
T3 sequence (looked up): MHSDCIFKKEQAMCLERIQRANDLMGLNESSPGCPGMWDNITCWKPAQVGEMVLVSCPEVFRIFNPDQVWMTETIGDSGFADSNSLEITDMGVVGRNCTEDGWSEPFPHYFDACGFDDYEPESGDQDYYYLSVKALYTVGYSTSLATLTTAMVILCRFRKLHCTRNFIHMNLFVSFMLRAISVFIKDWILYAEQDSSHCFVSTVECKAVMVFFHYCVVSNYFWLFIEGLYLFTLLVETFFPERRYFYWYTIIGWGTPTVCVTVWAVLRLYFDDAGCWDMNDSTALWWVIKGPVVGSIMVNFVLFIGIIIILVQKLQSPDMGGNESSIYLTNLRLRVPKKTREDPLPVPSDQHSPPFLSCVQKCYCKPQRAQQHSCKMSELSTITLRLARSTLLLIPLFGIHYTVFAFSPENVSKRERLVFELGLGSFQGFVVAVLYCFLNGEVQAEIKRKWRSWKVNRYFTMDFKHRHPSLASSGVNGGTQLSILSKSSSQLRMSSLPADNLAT


Legend:
[1] = biological target: T1, PACAP38 (Pituitary Adenylate …); experiment: cell-based or functional assay
[2] = biological target: T2, PACAP27 (Pituitary Adenylate …); experiment: cell-based or functional assay
[3] = biological target: T1, PACAP38 (Pituitary Adenylate …); experiment: cell-based or functional assay
[4] = biological target: T1, PACAP38 (Pituitary Adenylate …); experiment: cell-based or functional assay
[5] = biological target: T1, PACAP38 (Pituitary Adenylate …); experiment: SPR (ProteOn XPR36), antibody amine-coupled, peptide analyte, 1:1 Langmuir fit
Outline: (§1)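 Antibody amine-coupled to GLC or GLM chips; peptide antigen injected at 1.23 nM to 100 nM, association 2-4 min, dissociation 3-120 min. Sensorgrams fitted to a 1:1 Langmuir model; surfaces regenerated with 0.85% phosphoric acid between analytes.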

[6] = biological target: T2, PACAP27 (Pituitary Adenylate …); experiment: as above
Outline: as §1

[7] = biological target: T3, PAC1-R on PAC1-R-expressing PC-12 cells; experiment: cell surface binding assay (DELFIA TRF): antibody pre-incubated with PACAP38, added to PAC1-R-expressing PC-12 cells, detected with Eu anti-human IgG

Binder | Inhibition of 0.1 nM PACAP38-induced PAC1-R mediated cAMP increase IC50 (pM) [1] | Inhibition of 0.1 nM PACAP27-induced PAC1-R mediated cAMP increase IC50 (pM) [2] | Inhibition of 5 nM PACAP38-induced human VPAC1-R mediated cAMP increase IC50 (pM) [3] | Inhibition of 1 nM PACAP38-induced human VPAC2-R mediated cAMP increase IC50 (pM) [4] | Kd [5] | koff [5] | kon [5] | Kd [6] | koff [6] | kon [6] | binding result [7]
Ab10.H (antibody, human IgG1, kappa, N297A, Full-length humanized variant of Ab10) heavy: not shown light: DAQLTQSPSTLSASVGDRVTITCQSSESVYGNYLAWFQQKPGKAPKFLIYEASKLESGVPSRFSGSGSGTEFTLTISSLQPDDFATYYCAGGDISEGVAFGGGTKVEIKRTVAAPSVFIFPPSDEQLKSGTASVVCLLNNFYPREAKVQWKVDNALQSGNSQESVTEQDSKDSTYSLSSTLTLSKADYEKHKVYACEVTHQGLSSPVTKSFNRGEC | 163 pM | 84 pM | 1340 pM | 988 pM | ≤ 0.029 nM | ≤ 1e-05 s⁻¹ | 340000 M⁻¹ s⁻¹ | 0.033 nM | 1.8e-05 s⁻¹ | 530000 M⁻¹ s⁻¹ | no binding (tested: about 70 nM)
Ab10 (antibody, human IgG1, kappa, N297A, V domains shown, Full-length anti-PACAP antibody; rabbit variable regions cloned onto human constant regions (rabbit/human chimeric), expressed in HEK-293) VH: QSVEESGGRLVTPGTPLTLTCTVSGIDLNSYYMTWVRQAPGKGLEWIGFIDAGGDAYYASWAKGRFTISKTSTTVDLKITSPTTEDTATYFCARDLDLWGQGTLVTVSS VL: AAVLTQTPSPVSAAVGGTVTINCQSSESVYGNYLAWFQQKPGQPPKLLIYEASKLESGVPSRFSGSGSGTQFTLTISDLQCDDAATYYCAGGDISEGVAFGGGTEVVVKR | 180 pM | 227 pM | 649 pM | 188 pM | 0.075 nM | 2e-05 s⁻¹ | 260000 M⁻¹ s⁻¹ | ≤ 0.01 nM | ≤ 1e-05 s⁻¹ | 1e+06 M⁻¹ s⁻¹ | no binding (tested: about 5000 nM)
Ab20 (antibody, human IgG1, kappa, N297A, V domains shown, Full-length anti-PACAP antibody; rabbit/human chimeric) VH: QSVEESGGRLVTPGTPLTLTCTVSGIDLSSYYMSWVRQAPGKGLEWIGFIDTDGSAYYATWAKGRFTISKTSTTVDLKITSPTTEDTATYFCARDLDLWGPGTLVTVSS VL: AAVLTQTPSPVSAAVGGTVSISCQSSESVYSNYLAWFQQKPGQPPKFLIYEASKLASGVPSRFKGSGSGTQFTLTISDVQCDDAGTYYCAGGYSSEGVAFGGGTEVVVKR | 368 pM | 188 pM | 3890 pM | 14600 pM | 0.21 nM | 2.4e-05 s⁻¹ | 120000 M⁻¹ s⁻¹ | 0.07 nM | 2.2e-05 s⁻¹ | 320000 M⁻¹ s⁻¹ | no binding (tested: about 500 nM)
